This passage reports activity and binding signal results from patent US20250002945, “NEW TALE PROTEIN SCAFFOLDS WITH IMPROVED ON-TARGET/OFF-TARGET ACTIVITY RATIOS” (CELLECTIS SA, published 2025).

Holding throughout (conditions): tags: SV40 NLS; FokI fusion
One data set has as its target T1, IgH (2) right V2 TALEN (synthetic, UniProt Q56830 SEQ:15-719).
T1 chain: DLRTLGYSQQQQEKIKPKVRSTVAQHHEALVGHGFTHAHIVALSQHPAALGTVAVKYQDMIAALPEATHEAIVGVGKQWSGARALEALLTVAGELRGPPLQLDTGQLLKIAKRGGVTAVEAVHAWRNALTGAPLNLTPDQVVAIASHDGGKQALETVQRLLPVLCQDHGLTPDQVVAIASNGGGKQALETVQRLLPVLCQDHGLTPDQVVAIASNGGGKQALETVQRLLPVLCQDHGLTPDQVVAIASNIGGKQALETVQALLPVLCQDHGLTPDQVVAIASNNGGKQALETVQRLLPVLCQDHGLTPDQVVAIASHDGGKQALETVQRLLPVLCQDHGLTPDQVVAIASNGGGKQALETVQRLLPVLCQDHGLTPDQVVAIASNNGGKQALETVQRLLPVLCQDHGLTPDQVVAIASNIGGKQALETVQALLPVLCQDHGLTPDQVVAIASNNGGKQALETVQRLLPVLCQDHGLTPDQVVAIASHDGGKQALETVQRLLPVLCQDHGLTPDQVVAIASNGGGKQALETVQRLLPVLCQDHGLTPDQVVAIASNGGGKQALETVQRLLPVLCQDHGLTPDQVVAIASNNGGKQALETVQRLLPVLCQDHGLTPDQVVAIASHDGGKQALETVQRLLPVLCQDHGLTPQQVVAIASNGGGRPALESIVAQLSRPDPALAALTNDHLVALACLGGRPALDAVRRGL
Description: cell_activity; T cells, mostly above 70%.

The target of data set [1] is CS1 TALEN left V0 FokI D84A (synthetic, UniProt Q56830, D84A (FokI domain, SEQ ID NO:109 numbering)). In words: cell_activity; paired with V0 monomer.
In data set [2] the target is CS1 TALEN left V0 FokI G91A (synthetic, UniProt Q56830, G91A (FokI domain, SEQ ID NO:109 numbering)). Description: cell_activity; paired with V0 monomer.
The target in data set [3] is CS1 TALEN left V0 FokI Y88A (synthetic, UniProt Q56830, Y88A (FokI domain, SEQ ID NO:109 numbering)). In words: cell_activity; paired with V0 monomer.
For another data set, the target named is T2, GADPH (2) left V2 TALEN (synthetic, UniProt Q56830 SEQ:15-719).
T2 chain: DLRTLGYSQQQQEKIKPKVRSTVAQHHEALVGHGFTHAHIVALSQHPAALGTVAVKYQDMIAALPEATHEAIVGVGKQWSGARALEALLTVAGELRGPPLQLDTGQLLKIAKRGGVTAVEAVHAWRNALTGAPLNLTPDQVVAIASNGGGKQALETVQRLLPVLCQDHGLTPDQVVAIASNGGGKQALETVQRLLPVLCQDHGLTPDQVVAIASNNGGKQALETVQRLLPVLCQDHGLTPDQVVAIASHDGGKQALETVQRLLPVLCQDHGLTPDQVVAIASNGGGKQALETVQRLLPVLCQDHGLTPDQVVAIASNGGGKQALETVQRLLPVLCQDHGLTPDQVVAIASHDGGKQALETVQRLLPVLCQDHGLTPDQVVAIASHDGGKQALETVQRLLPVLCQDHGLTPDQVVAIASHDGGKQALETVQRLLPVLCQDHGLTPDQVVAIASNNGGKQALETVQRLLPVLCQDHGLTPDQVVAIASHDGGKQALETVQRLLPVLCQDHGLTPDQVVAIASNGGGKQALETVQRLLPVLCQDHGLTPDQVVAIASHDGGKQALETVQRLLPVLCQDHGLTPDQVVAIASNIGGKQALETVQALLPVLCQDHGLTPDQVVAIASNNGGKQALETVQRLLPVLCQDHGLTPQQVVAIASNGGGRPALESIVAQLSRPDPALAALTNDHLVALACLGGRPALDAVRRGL
Description: cell_activity; T cells, mostly above 70%.

The next data set addresses T3, GADPH (1) right V2 TALEN (synthetic, UniProt Q56830 SEQ:15-719).
T3 chain: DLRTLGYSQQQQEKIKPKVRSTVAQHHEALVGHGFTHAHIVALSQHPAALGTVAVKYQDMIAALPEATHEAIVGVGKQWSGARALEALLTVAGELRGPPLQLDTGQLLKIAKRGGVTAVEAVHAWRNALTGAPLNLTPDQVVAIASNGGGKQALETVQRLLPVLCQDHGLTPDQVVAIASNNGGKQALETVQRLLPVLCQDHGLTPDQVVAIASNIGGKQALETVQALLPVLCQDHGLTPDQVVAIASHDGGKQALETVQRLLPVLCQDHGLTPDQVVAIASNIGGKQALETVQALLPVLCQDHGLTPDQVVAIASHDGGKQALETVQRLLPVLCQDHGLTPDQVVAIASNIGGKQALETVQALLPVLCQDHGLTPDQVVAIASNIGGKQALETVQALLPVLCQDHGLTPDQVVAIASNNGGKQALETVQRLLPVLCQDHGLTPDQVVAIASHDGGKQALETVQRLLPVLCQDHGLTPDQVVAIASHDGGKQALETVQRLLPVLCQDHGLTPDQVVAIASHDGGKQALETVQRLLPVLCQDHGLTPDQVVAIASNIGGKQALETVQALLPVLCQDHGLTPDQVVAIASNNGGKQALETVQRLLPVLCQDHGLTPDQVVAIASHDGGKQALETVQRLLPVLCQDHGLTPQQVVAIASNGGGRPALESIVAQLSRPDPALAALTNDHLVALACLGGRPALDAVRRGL
In words: cell_activity; T cells, mostly above 70%.

A further data set has as its target T4, IgH (2) left V2 TALEN (synthetic, UniProt Q56830 SEQ:15-719).
T4 chain: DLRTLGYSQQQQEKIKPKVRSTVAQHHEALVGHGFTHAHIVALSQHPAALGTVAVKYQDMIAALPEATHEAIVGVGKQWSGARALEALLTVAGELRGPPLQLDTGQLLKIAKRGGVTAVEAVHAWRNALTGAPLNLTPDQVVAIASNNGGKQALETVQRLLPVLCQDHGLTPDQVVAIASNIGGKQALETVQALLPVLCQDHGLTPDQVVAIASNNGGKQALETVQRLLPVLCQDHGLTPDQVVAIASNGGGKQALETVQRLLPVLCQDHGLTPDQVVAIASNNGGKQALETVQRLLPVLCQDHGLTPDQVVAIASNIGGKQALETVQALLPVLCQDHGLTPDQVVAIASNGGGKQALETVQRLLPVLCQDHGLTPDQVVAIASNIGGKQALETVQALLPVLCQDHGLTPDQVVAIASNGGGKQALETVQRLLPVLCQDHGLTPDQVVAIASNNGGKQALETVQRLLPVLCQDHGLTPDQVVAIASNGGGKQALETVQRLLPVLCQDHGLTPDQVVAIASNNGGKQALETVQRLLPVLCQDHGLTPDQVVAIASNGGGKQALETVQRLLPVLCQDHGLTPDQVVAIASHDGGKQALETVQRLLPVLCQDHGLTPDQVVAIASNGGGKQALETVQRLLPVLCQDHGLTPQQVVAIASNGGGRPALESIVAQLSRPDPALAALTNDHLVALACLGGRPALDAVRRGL
Description: cell_activity; T cells, mostly above 70%.

A further data set has as its target T5, GADPH (2) right V2 TALEN (synthetic, UniProt Q56830 SEQ:15-719).
T5 chain: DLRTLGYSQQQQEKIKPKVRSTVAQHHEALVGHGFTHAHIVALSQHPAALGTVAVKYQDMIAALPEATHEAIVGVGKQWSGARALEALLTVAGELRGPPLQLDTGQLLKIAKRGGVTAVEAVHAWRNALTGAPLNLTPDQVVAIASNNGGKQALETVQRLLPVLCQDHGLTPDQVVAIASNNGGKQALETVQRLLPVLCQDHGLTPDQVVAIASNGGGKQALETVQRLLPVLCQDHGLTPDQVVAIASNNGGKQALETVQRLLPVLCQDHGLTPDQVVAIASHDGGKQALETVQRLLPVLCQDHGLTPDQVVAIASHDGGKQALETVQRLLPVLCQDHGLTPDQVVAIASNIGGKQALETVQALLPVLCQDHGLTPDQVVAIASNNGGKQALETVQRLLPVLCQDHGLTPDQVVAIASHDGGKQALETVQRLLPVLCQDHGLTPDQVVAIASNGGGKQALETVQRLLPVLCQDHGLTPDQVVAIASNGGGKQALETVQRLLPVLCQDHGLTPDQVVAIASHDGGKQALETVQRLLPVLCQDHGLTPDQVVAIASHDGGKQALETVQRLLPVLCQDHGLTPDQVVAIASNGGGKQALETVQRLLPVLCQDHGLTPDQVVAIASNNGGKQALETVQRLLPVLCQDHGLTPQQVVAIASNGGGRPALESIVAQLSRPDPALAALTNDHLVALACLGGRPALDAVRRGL
Description: cell_activity; T cells, mostly above 70%.

For another data set, the target named is T6, GADPH (1) left V2 TALEN (synthetic, UniProt Q56830 SEQ:15-719).
T6 chain: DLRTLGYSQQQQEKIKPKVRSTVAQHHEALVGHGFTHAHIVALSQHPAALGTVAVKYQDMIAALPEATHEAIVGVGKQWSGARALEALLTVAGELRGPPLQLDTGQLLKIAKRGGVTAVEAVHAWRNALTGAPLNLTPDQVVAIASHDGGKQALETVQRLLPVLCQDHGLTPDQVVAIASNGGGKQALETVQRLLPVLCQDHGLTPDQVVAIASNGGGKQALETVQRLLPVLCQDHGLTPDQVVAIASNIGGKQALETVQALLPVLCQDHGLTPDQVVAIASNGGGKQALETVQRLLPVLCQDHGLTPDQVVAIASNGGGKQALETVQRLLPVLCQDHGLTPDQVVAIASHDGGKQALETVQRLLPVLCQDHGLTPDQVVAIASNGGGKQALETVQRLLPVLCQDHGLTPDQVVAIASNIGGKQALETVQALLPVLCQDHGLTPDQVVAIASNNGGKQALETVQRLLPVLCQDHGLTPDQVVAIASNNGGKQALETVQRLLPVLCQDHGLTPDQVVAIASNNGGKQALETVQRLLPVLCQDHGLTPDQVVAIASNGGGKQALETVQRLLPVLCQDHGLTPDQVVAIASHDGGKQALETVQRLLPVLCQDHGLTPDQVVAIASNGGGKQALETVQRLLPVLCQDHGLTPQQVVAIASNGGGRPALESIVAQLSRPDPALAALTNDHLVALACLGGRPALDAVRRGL
In words: cell_activity; T cells, mostly above 70%.

B1: IgH (2) right half-site (dsDNA)
DNA 1: AGCAAGCTCAGCTAAGA
DNA 2: TCTTAGCTGAGCTTGCT
In the case of B1, the activity in the data set with IgH (2) right V2 TALEN is > 50 % indels.

B2: CS1 left half-site (dsDNA)
DNA 1: TTCCAGAGAGCAATATG
DNA 2: CATATTGCTCTCTGGAA
Take B2: the binding signal in data set [1], in [2] and in [3] was > 100 % of WT FokI in each case.

B3: GADPH (2) left half-site (dsDNA)
DNA 1: TTTGCTTCCCGCTCAGA
DNA 2: TCTGAGCGGGAAGCAAA
For B3, in the data set with GADPH (2) left V2 TALEN, the activity was > 50 % indels.

B4: GADPH (1) right half-site (dsDNA)
DNA 1: AGCTGGGCTTGTGTCAA
DNA 2: TTGACACAAGCCCAGCT
For B4, in the data set with GADPH (1) right V2 TALEN, the activity was > 50 % indels.

B5: IgH (2) left half-site (dsDNA)
DNA 1: TGAGTGATATGTGTCTG
DNA 2: CAGACACATATCACTCA
As for B5, the activity with IgH (2) left V2 TALEN is > 50 % indels.

B6: GADPH (2) right half-site (dsDNA)
DNA 1: ACAGGAAGCTGGCACCA
DNA 2: TGGTGCCAGCTTCCTGT
As to B6, the activity with GADPH (2) right V2 TALEN is > 50 % indels.

B7: GADPH (1) left half-site (dsDNA)
DNA 1: TCTTATTCTAGGGTCTG
DNA 2: CAGACCCTAGAATAAGA
Regarding B7, the activity with GADPH (1) left V2 TALEN is > 50 % indels.
